{"source": "patent US20230365642A1", "about": "(MEDICENNA THERAPEUTICS, published 2023)", "key": {"[1]": {"biological_target": "T1, IL4R Type-II (IL4Rα chain with IL13Rα1), on cells (UniProt P24394 26-825; P78552 22-427, limits assumed)", "T1 sequence (looked up) 1": "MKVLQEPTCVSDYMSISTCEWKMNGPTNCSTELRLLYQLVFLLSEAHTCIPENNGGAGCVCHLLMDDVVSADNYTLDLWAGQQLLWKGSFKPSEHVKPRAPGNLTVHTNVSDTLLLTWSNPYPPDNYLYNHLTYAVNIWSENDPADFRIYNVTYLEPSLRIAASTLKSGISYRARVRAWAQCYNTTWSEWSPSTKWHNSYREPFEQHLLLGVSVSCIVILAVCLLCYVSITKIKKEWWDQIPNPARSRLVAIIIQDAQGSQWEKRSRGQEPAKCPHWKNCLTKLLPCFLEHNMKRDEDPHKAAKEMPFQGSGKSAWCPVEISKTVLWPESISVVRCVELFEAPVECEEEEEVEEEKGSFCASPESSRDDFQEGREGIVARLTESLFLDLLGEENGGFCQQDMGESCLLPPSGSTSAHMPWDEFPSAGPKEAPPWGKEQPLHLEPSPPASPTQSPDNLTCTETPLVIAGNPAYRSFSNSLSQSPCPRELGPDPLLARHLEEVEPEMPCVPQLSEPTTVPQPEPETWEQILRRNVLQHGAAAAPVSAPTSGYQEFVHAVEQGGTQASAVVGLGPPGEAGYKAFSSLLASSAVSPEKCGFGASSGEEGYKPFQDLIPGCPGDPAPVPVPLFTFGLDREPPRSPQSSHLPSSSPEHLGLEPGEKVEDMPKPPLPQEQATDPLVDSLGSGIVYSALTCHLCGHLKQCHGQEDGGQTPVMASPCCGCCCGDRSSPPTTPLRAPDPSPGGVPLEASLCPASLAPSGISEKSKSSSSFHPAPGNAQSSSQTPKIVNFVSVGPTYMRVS", "T1 sequence (looked up) 2": "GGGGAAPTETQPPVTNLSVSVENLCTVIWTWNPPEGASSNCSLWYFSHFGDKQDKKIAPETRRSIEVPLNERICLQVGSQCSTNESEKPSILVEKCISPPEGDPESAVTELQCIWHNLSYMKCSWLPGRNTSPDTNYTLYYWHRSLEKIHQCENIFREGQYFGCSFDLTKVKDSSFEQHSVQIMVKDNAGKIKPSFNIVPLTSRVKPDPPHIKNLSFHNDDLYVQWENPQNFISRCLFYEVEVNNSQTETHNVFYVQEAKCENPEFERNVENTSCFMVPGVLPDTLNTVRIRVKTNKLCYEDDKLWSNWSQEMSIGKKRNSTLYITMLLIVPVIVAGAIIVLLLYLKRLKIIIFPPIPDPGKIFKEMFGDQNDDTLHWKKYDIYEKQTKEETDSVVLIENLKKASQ", "assay": "cell-based or functional assay"}, "[2]": {"biological_target": "T2, IL13Rα Protein, Human, Recombinant, His Tag (human IL13Rα1) (human, UniProt P78552 22-343, limits assumed)", "T2 construct": "also called hIL13Rα1; IL13Ra1; not shown: His tag", "T2 sequence (looked up)": "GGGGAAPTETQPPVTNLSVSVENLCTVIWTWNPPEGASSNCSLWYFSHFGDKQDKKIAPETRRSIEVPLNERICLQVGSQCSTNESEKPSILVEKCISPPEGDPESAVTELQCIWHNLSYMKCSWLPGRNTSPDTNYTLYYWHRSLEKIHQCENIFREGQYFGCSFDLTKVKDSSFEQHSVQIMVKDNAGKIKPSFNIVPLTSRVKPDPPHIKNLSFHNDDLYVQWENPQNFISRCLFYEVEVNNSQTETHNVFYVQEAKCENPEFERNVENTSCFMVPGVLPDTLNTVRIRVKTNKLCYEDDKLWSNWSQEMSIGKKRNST", "assay": "ELISA, receptor coated on plate, anti-human IgG Fc detection"}, "[3]": {"biological_target": "T3, IL13Rα1 Protein, Mouse, Recombinant, His Tag (mouse, UniProt O09030 26-340, limits assumed)", "T3 construct": "also called mouse IL13Rα1; mIL13Rα1; not shown: His tag", "T3 sequence (looked up)": "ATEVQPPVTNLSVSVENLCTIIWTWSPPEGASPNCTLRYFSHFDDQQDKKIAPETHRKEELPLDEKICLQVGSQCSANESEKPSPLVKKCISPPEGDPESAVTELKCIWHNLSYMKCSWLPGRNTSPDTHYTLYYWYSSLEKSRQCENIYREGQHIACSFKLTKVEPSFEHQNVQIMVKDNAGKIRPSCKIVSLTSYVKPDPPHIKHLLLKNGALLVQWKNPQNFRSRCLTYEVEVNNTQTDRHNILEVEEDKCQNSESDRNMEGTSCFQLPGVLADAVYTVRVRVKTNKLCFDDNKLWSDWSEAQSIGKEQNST", "assay": "ELISA, receptor coated on plate, anti-human IgG Fc detection"}, "[4]": {"biological_target": "T1, IL4R Type-II (IL4Rα chain with …)", "assay": "cell-based or functional assay", "remark": "listed apart in the source"}, "[5]": {"biological_target": "T1, IL4R Type-II (IL4Rα chain with …)", "assay": "cell-based or functional assay", "remark": "listed apart in the source"}}, "data": [{"binder": "Fc4-MDNA413 (1:2) (Fc fusion, also called Fc4-MDNA413^R39/Q111 (1:2)) APPCPSCPAPEFLGGPSVFLFPPKPKDTLMISRTPEVTCVVVDVSQEDPEVQFNWYVDGVEVHNAKTKPREEQFNSTYRVVSVLTVLHQDWLNGKEYKCKVSNKGLPSSIEKTISKAKGQPREPQVYTLPPSQEEMTKNQVSLTCLVKGFYPSDIAVEWESNGQPENNYKTTPPVLDSDGSFFLYSRLTVDKSRWQEGNVFSCSVMHEALHNHYTQKSLSLSPGKGGGSGSPGPVPPSTAVRALIEELINITQNQKAPLCNGSMVWSINRTAGMYCAALESLINVSGCSAIEKTQDMLSGFCPHKVSAGQFSSLHVRSSKIEVAQFVKDLLFHLRTLFREGQFN", "values": [{"measurement": "IL4 EC50 (nM); IL-4 competitive assay, HEK-Blue IL-4/IL-13 reporter cells", "setting": "[1]", "result": 7.5, "unit": "nM"}, {"measurement": "IL 13 EC50 (nM); IL-13 competitive assay, HEK-Blue IL-4/IL-13 reporter cells", "setting": "[1]", "result": 37.8, "unit": "nM"}, {"measurement": "binding result", "setting": "[2]", "result": "binds"}, {"measurement": "binding result", "setting": "[3]", "result": "binds"}, {"measurement": "IL-13 Mediated M2 polarization CD206 (IC50 nM), first donor", "setting": "[4]", "result": 0.48, "unit": "nM"}, {"measurement": "IL-13 Mediated M2 polarization CD209 (IC50 nM), first donor", "setting": "[4]", "result": 1.6, "unit": "nM"}, {"measurement": "IL-13 Mediated M2 polarization CD209 (IC50 nM), second donor", "setting": "[4]", "result": 0.492, "unit": "nM"}, {"measurement": "IL-4 Mediated M2 polarization CD206 (IC50 nM), second donor", "setting": "[5]", "result": 2.01, "unit": "nM"}, {"measurement": "IL-4 Mediated M2 polarization CD209 (IC50 nM), first donor", "setting": "[5]", "result": 0.59, "unit": "nM"}, {"measurement": "IL-4 Mediated M2 polarization CD209 (IC50 nM), second donor", "setting": "[5]", "result": 2.3, "unit": "nM"}]}]}
